Substitutions are numbered along the chain they refer to. Values belong to the binder of their own block, whether it stands above or below them.
Molecular target: prostate specific membrane antigen (PSMA) on LNCaP cells (human, UniProt Q04609)
Test: ELISA on plates coated with LNCaP membrane preparation, purified antibody

fold change against the chimeric antibody: 2 fold less
B1: deimmunized J415, heavy chain version 1 with light chain version 5 (antibody, V domains shown)
VH: EVKLEESGGGLVQPGGSMKISCKASGFTFSNYWMNWVRQTPEKGLEWVALIRSQSNNFATHYAESVKGRVIISRDDSKSSVYLQMNSLRAEDTAVYYCTRRWNNFWGQGTTVTVSS
VL: NIVMTQFPKSMSASAGERMTLTCKASENVGTYVSWYQQKPTQSPKMLIYGASNRFTGVPDRFSGSGSGTDFILTISSVQAEDLVDYYCGQSYTFPYTFGGGTKLEMK

fold change against the chimeric antibody: 2 fold less
B2: deimmunized J415, heavy chain version 2 with light chain version 5 (antibody, V domains shown)
VH: B1 VH with K23V
VL: B1 VL

— patent publication US7666414B2, “Methods for treating prostate cancer using modified antibodies to prostate-specific membrane antigen” (Cornell Research Foundation, Inc., dated 2010)
